In paper PMC3560613:

Substrate: Nc1ccn([C@@H]2O[C@H](COP(=O)(O)OP(=O)(O)OP(=O)(O)O)[C@@H](O)[C@H]2O)c(=O)n1
Experiment: purified protein
Conditions: 20 mM glycerol phosphate, 6 mM MgCl2, 20 mM Tris-HCl pH 8, 37°C

B1: EfGCT (Enterococcus faecalis glycerol 3-phosphate cytidylyltransferase) (Enterococcus faecalis V583) (protein)
chain: MKKILTYGTFDLLHYGHINLLKKAKQQGDYLIVGLSTDAFNLEKKKQSYFSYEKRKQLLEAIRYVDLVIPETSWKQKVSDIAEFKIDTLVMGDDWQGAFDFLEVETTAKVLYLPRTPEVSTTQIKKELYYSE
Q: Which results are given for B1?
A: Km: 2420 µM; kcat: 1.51 s⁻¹

B2: LmGCT (Listeria monocytogenes glycerol 3-phosphate cytidylyltransferase) (Listeria monocytogenes EGD-e) (protein)
chain: MKKVITYGTFDLLHWGHIHLLKRAKALGDYLIVAISSDEFNRIKHKEAYHSYEHRKLIIEAIRYVDEVIPENNWEQKRDDIEKYGIDVFVMGDDWEGEFDFLKDVCEVVYLPRTEGISTSQIKDELK
Q: With B2 as the protein, how does the Km read?
A: The Km was 1520 µM.

Q: What about the kcat of the same protein?
A: The kcat was 4.15 s⁻¹.
